Ka, KA and binding data for 5 molecules are collected here from PMC6458161 (2019).

Data set [1] relates to protamine (sulfate salt) (salmon). In words: ITC. The note with it: ITC in Hepes buffer, 25 C (salt and pH not given in the material), short duplexes 10 uM (strand concentration), protamine 100 uM.
For data set [2], the system named is GCDNA (DNA, duplex) GCGCGCGCGC
In words: ITC, one set of sites fit. The conditions noted are these: Na+ 100 mM (from the 10 mM Hepes/100 mM NaCl UV and gel buffer; the ITC buffer is only given as Hepes buffer), 25 °C, 500 µM EtBr titrated into 10 µM DNA (strand concentration). (In ITC the heat of successive injections is recorded.)

The test system of data set [3] is ATDNA (DNA, duplex) GCAAATTTGC
In words: ITC, one set of sites fit. The conditions noted are these: Na+ 100 mM (from the 10 mM Hepes/100 mM NaCl UV and gel buffer; the ITC buffer is only given as Hepes buffer), 25 °C, 200 µM EtBr titrated into 10 µM DNA (strand concentration).

For data set [4], the system named is GCDNA (DNA, duplex) GCGCGCGCGC
In words: ITC. The conditions noted are these: Hepes buffer, 25 °C; 200 µM Net titrated into 10 µM DNA (strand concentration).

Where [5] appears, read: 20 uM ethidium bromide (EtBr-bound DNA).

As for GCAAATTTGC (double strand) [ATDNA], the Ka turned out to be 3.9e+06 M⁻¹ in data set [1] (setting [5]), 1.89e+08 M⁻¹ in data set [1] (20 uM netropsin (Net-bound DNA)) and 1.4e+08 M⁻¹ in data set [1] (no drug).
For the molecule `CC[n+]1c(-c2ccccc2)c2cc(N)ccc2c2ccc(N)cc21`, the figures for the KA in data set [2] and in data set [3] were 145000 M⁻¹ and 165000 M⁻¹, respectively.
For the molecule GCGCGCGCGC (double strand) [GCDNA], the results for the Ka in data set [1] (setting [5]), in data set [1] (20 uM netropsin) and in data set [1] (no drug) were 4.5e+06 M⁻¹, 4.5e+07 M⁻¹ and 3.4e+07 M⁻¹, respectively.
Regarding CTDNA (calf thymus DNA), the Ka was 6.36e+07 M⁻¹ in data set [1] (60 uM ethidium bromide (EtBr-bound DNA)); 5.54e+07 M⁻¹ in data set [1] (60 uM netropsin (Net-bound DNA)); 550000 M⁻¹ in data set [1] (no drug, CTDNA titrated into protamine).
`Cn1cc(NC(=O)c2cc(NC(=O)CN=C(N)N)cn2C)cc1C(=O)NCCC(=N)N`: the binding entry in data set [4] was “no”.
